From patent publication US20250092148A1 (Kyowa Kirin, published 2025)
Residue numbers refer to the chain shown, from its start.

How the values were obtained:
Assay in all cases: flow cytometry, Fab on HEK-293T cells expressing the mutant; labels of this column stand one row too low, mutant assigned after shifting them up
human CD131 D144A = molecular target: T1, human CD131 D144A (human, UniProt P32927 17-897)
T1 construct: whole, on cells
T1 sequence (looked up): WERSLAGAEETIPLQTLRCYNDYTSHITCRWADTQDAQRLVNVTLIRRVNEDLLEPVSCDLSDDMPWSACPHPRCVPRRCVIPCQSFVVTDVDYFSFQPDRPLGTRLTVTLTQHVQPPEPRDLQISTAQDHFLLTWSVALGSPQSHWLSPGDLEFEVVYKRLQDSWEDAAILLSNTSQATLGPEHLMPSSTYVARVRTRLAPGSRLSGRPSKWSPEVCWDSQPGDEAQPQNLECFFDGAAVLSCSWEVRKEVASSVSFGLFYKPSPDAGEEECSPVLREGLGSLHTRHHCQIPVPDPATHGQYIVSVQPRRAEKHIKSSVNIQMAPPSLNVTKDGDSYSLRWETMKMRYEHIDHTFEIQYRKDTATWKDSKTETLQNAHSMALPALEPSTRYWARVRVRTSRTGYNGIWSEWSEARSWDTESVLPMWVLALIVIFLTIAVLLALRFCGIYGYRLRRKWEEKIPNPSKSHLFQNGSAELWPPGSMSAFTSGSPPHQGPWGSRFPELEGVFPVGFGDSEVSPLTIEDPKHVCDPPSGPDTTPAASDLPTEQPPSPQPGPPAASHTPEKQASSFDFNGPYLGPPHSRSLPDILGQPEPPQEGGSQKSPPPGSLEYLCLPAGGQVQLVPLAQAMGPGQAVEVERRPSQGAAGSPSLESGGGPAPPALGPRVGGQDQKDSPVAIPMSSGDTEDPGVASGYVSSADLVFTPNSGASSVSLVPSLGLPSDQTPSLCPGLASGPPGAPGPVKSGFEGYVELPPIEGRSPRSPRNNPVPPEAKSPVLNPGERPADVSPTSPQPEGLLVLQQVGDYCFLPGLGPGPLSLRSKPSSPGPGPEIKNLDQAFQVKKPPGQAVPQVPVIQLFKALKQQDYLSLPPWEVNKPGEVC

human CD131 D146A = molecular target: T2, human CD131 D146A (human, UniProt P32927 17-897)
T2 construct: whole, on cells
T2 sequence (looked up): T1 sequence (looked up) with A128D, D130A

human CD131 H147A = molecular target: T3, human CD131 H147A (human, UniProt P32927 17-897)
T3 construct: whole, on cells
T3 sequence (looked up): T1 sequence (looked up) with A128D, H131A

Binding Reactivity (% WT) (human CD131 D144A): 129 % WT
Binding Reactivity (% WT) (human CD131 D146A): 88.4 % WT
Binding Reactivity (% WT) (human CD131 H147A): 110 % WT
B1: anti-CD131 antibody 131-B2, Fab (Fab, V domains shown)
VH: QVQLVQSGAEVKEPGASVKISCKASGYTFTNDYMHWVRQAPGQGLEWMGIINPTGGGTSYAQKFRGRVTMTRDTSTSTVYMELSSLRSEDTAVFYCARERYYGSGTYFNIGLWYFDLWGRGTLVTVSS
VL: not shown
notes: Fab made from the antibody by an enzyme treatment
